This passage reports Kd results from patent US20190016778A1 (Xencor, published 2019).

The assay concerns the target T1, human CD8 (captured on Octet biosensor) (human, UniProt P01732 22-182).
T1 construct: also called recombinant human CD8a
The assay can be described thus: method not given; Octet (BLI) is the method of this example.

B1: humanized OKT8 variant (H2L1) (antibody)
chain 1: QVQLVQSGAEVKKPGASVKVSCKASGFNIKDTYIHWVRQAPGKGLEWMGRIDPANDNTLYASKFQGRVTITADTSINTAYMELSRLRSDDTAVYYCGRGYGYYVFDHWGQGTTVTVSSASTKGPSVFPLAPSSKSTSGGTAALGCLVKDYFPEPVTVSWNSGALTSGVHTFPAVLQSSGLYSLSSVVTVPSSSLGTQTYICNVNHKPSNTKVDKKVEPKSCDKTHTCPPCPAPPVAGPSVFLFPPKPKDTLMISRTPEVTCVVVDVKHEDPEVKFNWYVDGVEVHNAKTKPREEQYNSTYRVVSVLTVLHQDWLNGKEYKCKVSNKALPAPIEKTISKAKGQPREPQVYTLPPSREQMTKNQVKLTCLVKGFYPSDIAVEWESNGQPENNYKTTPPVLDSDGSFFLYSKLTVDKSRWQQGNVFSCSVMHEALHNHYTQKSLSLSPGK
chain 2: DIKMTQSPSSLSASVGDRVTITCRTSRSISQYLAWYQEKPGKTNKLLIYSGSTLQSGIPSRFSGSGSGTDFTLTISSLQPEDFATYYCQQHNENPLTFGAGTKLEIKRTVAAPSVFIFPPSDEQLKSGTASVVCLLNNFYPREAKVQWKVDNALQSGNSQESVTEQDSKDSTYSLSSTLTLSKADYEKHKVYACEVTHQGLSSPVTKSFNRGEC
chain 3: EPKSSDKTHTCPPCPAPPVAGPSVFLFPPKPKDTLMISRTPEVTCVVVDVKHEDPEVKFNWYVDGVEVHNAKTKPREEEYNSTYRVVSVLTVLHQDWLNGKEYKCKVSNKALPAPIEKTISKAKGQPREPQVYTLPPSREEMTKNQVSLTCDVSGFYPSDIAVEWESDGQPENNYKTTPPVLDSDGSFFLYSKLTVDKSRWEQGDVFSCSVMHEALHNHYTQKSLSLSPGK
Molecule B1 showed a Kd of 12 nM.
